Assay results taken from a protein production outcome set (Wang et al. 2014).

Assay: label from the status in PepcDB records

Sequence | protein production
MIAGFDAKLVASADTPLTIGNVPSGMEALLLADMARAGTSVAYVMSDGQRVADLEQILGFVAPDIPVLTLPAWDCLPYDRVSPSADTSARRLAALAGLINHAKKPHPAVVLVTVNAMLQKMAPRDVIESLGFSARPGNQIRMEDIAARLERNGFDRVATVREVGEFAVRGGILDVFVPGTEEPVRLDFFGDTLESIRTFDPASQRTIAQARSLDLNPMSEVTLTPDTIGRFRKNYLSLFGAATRDDALYQAVSEGRRYAGMEHWLPLFYEQLETAFDYLKGFRIVTDHTAKEAAKERSKLVLDYYEARRASGETKGSTQGAPYKPVSPGQIYLDGKSFEAALASVNAVRLTPFNEHDSEGRPVATLDAHVGPRWARPPTEGDSEERVNVFDLAVKHIAERRAKGWKVLITGWSEGSLDRLLQVLNEHGLEKIKPVTSLKEVKKLGKGEAACAVLSLEAGFETGTLAVIGEQDILGDRMVRRSKRRKRGADFIAEVAGLDEGSLVVHAEHGIGRFVGLQTIEAAGAPRACLELHYADDAKLFLPVENIDLLSRYGSDAAEATLDKLGGGAWQMRKAKLKKRLLDMADELIRIAAARLVRHAPALIAPDGLYDEFAARFPYDETEDQLNAIEAVRDDLGAGRPMDRLICGDVGFGKTEVALRAAFLAAMNGVQVAVVVPTTLLARQHFRTFSERFRGLPIRVQQASRLVGSKELALTKKEVAEGKTDIVVGTHALLGAGISFANLGLLIIDEEQHFGVKHKERLKELKSDVHVLTLSATPIPRTLQLAMTGVRELSLITTPPVDRMAVRTFISPFDPLVIRETLMREHYRGGQSFYVCPRLADLADIHAFLQSDVPELKVAVAHGQMAAGELEDIMNAFYDGKYDVLLSTTIVESGLDVPTANTLIVHRADMFGLAQLYQLRGRVGRSKVRAFALFTLPVNKVLTTMAERRLKVLQSLDTLGAGFQLASHDLDIRGAGNLLGEEQSGHIKEVGFELYQQMLEEAVAEVKGDEEVRDSGWSPQISVGTSVMIPEDYVPDLHLRMGLYRRLGELADISEIDGFGAEMIDRFGPLPKEVQHLLKIVYIKSLCRTANVEKVDAGPKGVVVQFRNKEFPNPAALVGYIGKQGSMAKIRPDHSLFLNRDLPTPEKRLTGAAMVMTQLAELARS | failed
MIAHMTRDNEYKTIKDRLITLVEKEQAHRTLNQYNSDKANHDITRLSNKMRLLRRLIEHPVILNEKVSSLGNNTKRAVKGLATGLVMVAVTITAISARDYWGEITASFIIAMSFIYALREIFKDDLRDMLWRWISKGKAKWRRHYFDPTTGKQVGDKEEWLDYKKLSELPDRIQAIRKKRIVQREEQILHYRSHTEMSTSRFMSGYEETRETMMIDLRAIMRQMDKGSNHIYQLNNGQVSRESVEKRHLLNLIAKEKHHKGEPTYYRWKIVLNRSRIVDIESIPLT | failed
MIATIQNEKVIVSISDKGAELQSVRLKEDNTEYLWQGDSTYWGRRAPILFPIVGRLVDNTYYVDDKPYSLTQHGFARDLTFTVKEQSETKITYIVTSNEETLKKYPYEFELLVSYELDGQIVHVTYEVNNPTSKEMFFSIGAHPGFNFPLLEGESFTDYHLSFNGSERLETSVLEGPYLSNKKQLIAESTNELPLTYDLFKNDALIFENMNTDEISIRSHKHNKFVKVEFDGFPFVGVWTPGENAPFLCIEPWYGIADEVNPAKDFKEKKGIQSLQANETFTCRYSITIG | failed
MICFIKTLFVKIKRKKTSYVTFFLMPILTTLLALSLSFSNNNQAKIGILDKDNSQISKQFIAQLKQNKKYDIFTKIKKEHIDHYLQDKSLEAVLTIDKGFSDKVLQGKSQKLNIRSIANSEITEWVKAQTNYLLENYNIIGDVALGNEDTFNRILQKNQQLNYDVKQVTLTDRSRSKAVSSTTTGFLLILMLGSTSVIYSGILADKSSQLYHRLMLSNLSRFRYMLSYVCVGFVAFTIQIVIMLSLLKVFNISFFVPTSLLLIIFFLFSLLAIGFGLLIGAITQNSQQSSQLANLIVMPTSMLAGCLWPLSITPSYMQAIGKLLPQNWVLSAIAIFQSGGTLSQAWPYLLALMGTALALISFSSLLLKPTKL | failed
MICKLKLLSLPSYSSKPCNFYIHLKCSELPQKIRHPFDRNHLLSLISSPKYQEGRFRCNACGKDGDRLAYHCGDCGIDLHTVCANMPSRVTHQSHPHHQLSLTFSMPPGGPGSAAASSFQCCVCRGLGSNSWLYSCGECSGFDAHL | failed
MICRTIVEGTTKISVPVPPPDANFPPSAAPVFYNPEMELNRDINVAATAAFVERLLSKKDILREEIRYVDAFSASGIRGLRIAGEVGIHSTMNDWSHEAFELIKENIKINGLEEKAQATRRNANVLLHEQRFHIVDVDPFGTPSPYLDAAASSAYSMLSVTATDTAPLCGAHLNSGIRKYASVPLNTEYHSEMGLRVLLGACARELAKHEKGMLPLLSHVTRHYVRTYLEVLPGSRKADKTLKSMGFVAHCPRCGFRKPVYGLAVHIEKECPECGGLTKIAGPLWLGPYREPEFCNEVISELEAHPLNTKEKVRKIITFCRDELDIPMFYDQHVICKELGASATGIESLIEALRAGGFEASRTHFTGTSFKTDAPIAEIKKIILALSG | failed
MIDDKYFDVFNDKSTLQAIAVPERLERRTTVTDRIDRNGTRHEAVVPVGAAYTLLPKQFCKPAAKNYLFELDDFQKISVCSLERDESVLVSAHTSSGKTVVAEYAIAMSLRSNQRVVYTSPIKALSNQKYRELLSEFSDVGLMTGDVTINPTASCLVMTTEILRNMLYRGGEVVREIHWIIFDEIHYMRDKERGVVWEETIILLPKHVRMVFLSATIPNALEFAEWISHIQSQVVHVVYTEKRVTPLVHYFRSNKLYKIKDAKFHKSNFLSAMRSIRKRNVGPREVGEAIGDASLPVVVFSFKRKDCERFAMKLDGRYLTDEEARTVQTIFTNAIMSLRKEDREIPIIQNILPLLMRGIGIHHSGLLPIIKEVVEILFQEGLLKVLFATETFSIGLNMPAKSVVFTALKKFDGEAMRLVSSGEYIQMSGRAGRRGIDSMGIVISIISEPITYKEASRLFSASSDNLVSAFRLTYNMLLNLMRVEGLDPLYLISRSFHHFQSYKKALAEEETLHLMYRRLEDIEPNETACLYRKREEKKVERGKRLVEAFGKYLKKGRVVDLFIPRNGPSITIRNAIVSKAREKVQCMVGTEEGVYMCSFPLHYIDCVYDIRVKLDVRVFTKSFEKIAVRDELDEEIEEIEGKILSMDPEWSFDFCVLCGKSSVGCLVSCSRELIDSEAVIVQMPENTKRYGESLEAARYPSTEMKSNMDGARAFFVNETLRQRYLEKLLELNSLKEIYHMRECKKMIEVLKKLEYCDDTTVLIKGRMACEISSGDELVLTEMIFNGDFAGIPVEHFVPLLSCIVFEEWDSDSFVLSDENKLYYRLLSDSVEKVCKVLKSCGIEIDPAAYLKRFSYELMDVVRMWVCGCTFISICSKTSIFEGSIIRTFKRLEELLRQLSSAARVIGNTELENMFALGIVKIKRDIVFANSLYI | failed
MIDLDPRLAADTHPVTQWPLSQVRLMDDVRFPWLVLIPDRPGLVEIFDLPAEDQDKMWREVAHAAATLKTLSGAHKINIGALGNQVSQLHIHIIARRPDDGAWPGPVWGVGERQRYDQAELAEFLSGLRAQLIAPGQGIVEEGQTR | failed
MIDMFPMEKGEEQETYELIVRVFHKYVAPVYSENGVARFLGMLSPEGLSEMNNGKNSFVIVARDQSKIIGMISVINDSHIALFFVSPRYQGKGIGKNILDEAIKNCLNRNPELSAVTVSSSPNSKSFYEEAGFEVIGNEINEEGLRFTPMRKLLRQLEHHHHHH | failed
MIDRRRVRHSFHRQALEYDAHAAVQKRVVERFLQILDDEVGSPLRILDVGAGTGLLARQLADCHPAALLSCVDLAPGMAATARQRLGSRALVAVADAEHLPFAGASFDCVVSTSTFQWLTTLDAAFGEVWRVLAPGGLFAFALFGHGTFHELKDSYRSALTAVGREDEDRTQRFFTEAEAGAALERTGFGVRRLCVEDEVEWHPDVPAFLRSVKRVGAGNASPLRGRGLAERRVMVEMMRVYGERYGGERGIPATYTVIYGVGVKSGRK | failed
MIDTIIISLIAFSILVSLWRGFISEVLSLSGWIAAFFVASTFYPYLSSYLNEIDSVYLQNSEYLRNGIAAAILFIITLILCGIVNALLSKIINTTGLSATDRVLGIAFGALRGILIVAAILFFIDTFTTSNQTELWQESQLIPHFDFIVKWFFEQLQANSSFLNSTTTTK | failed
MIDTLKNIKVKDVMTKNVITAKRHEGVVEAFEKMLKYKISSLPVIDDENKVIGIVTTTDIGYNLIRDKYTLETTIGDVMTKDVITIHEDASILEAIKKMDISGKKEEIINQLPVVDKNNKLVGIISDGDIIRTISKII | not failed
MIEEAPPHPSAPMAASPSVTTALKHAPLGIAIFDNQMRYLAASRQYLTDQHLPPDLPLIGRLHYDAFPEVPQKWRDLHARVLAEGVELRHEGDPYVDREGRTQWIRWSMAPWRTDGGGIGGLVLYTEVVT | failed
MIEFLLNYYFMPFNLSVIALLILSMAETIGIYIGLRPSTFLKKFLPRWLSNSPLVNVKFSKVLILVFFLINFSFAGYFLQLCVFAQQQFFISPFYLIIPALIIGIFFTVFMIHCLDQVIKPQVEHQYSSLLGRLATISSGSARPGFSAQARVRDEFGQLHYVQVEPEFGELELQSQVILIRFRQTHYIAKRISASNHLFTPE | failed
MIEIKTLTNNDFNEYKRLVSTVNEEFTQDSHYSQTMTDTLIHDILNQGSPKCIVFGCYENETLIATAALEQIRYVGKEHKSLIKYNFVTNNDKSINSELINFIINYARQNNYESLLTSIVSNNIGAKVFYSALGFDILGFEKNAIKIGNTYFDEHWLFYDLINK | failed
MIEKIVKEMTLKEKVGQLNQHLYGWQCYQKVNGKYELTDLFKEHVKEYGGVGAIYGILRADAWSQINRENGISREDSKIVITMIQEYIKKHSRFEIPALISEECVHGHMALGAPVFPTNLAMGMTWNPDLMERITHNVSQELAAKGGNLALFTGFDVLRDPRWGRSEECFSEDAYLTSCMTSAAVHGFQKEKNGVAVVVKHLCAQGGCVGGHNSDAALIGPRELREIHLPPVKAAIDAGAKAVMAAYNEIDGIPCHINKALLFETLRKEYDFSGIVMADGCALDRLLLLDDDILKVGSLALKAGVDLSLWDNVYLRLDEAIKQGYLTEEELDQAVLRVLRLKEELGLWEELNTYSLPEASDLLLQAARECQVLLKNNDSLLPLSSKQKIAVIGPNANHYLNQLGDYTAYQNKSDIVTVYDGICQKTEISPIYVQGCSIRGRKFDIEPALVAAKAADIVILVLGGNSTRLYQDTFENNGAVKANQENQMNCGENIDLASLELEGYQNELLLALKEVNPHIVTVLIQGRPHVINTVLKHSQAVLASFYPGSRGGEGIADVLFGDYNPSGHLSVSIPQHVGQLPCYYNHKHNGAQKDYVDMPGEALLPFGYGLSYSQFIYRDIKVPKAIKITDLLENGIDLQLEIYNNSTYDGEDVIQVYLKDHQASVVSRVIELKAFNKVKIQAYQSKQISIHLTSDAFAIWNYEMKYLVEPGDVSICIGVDSKHYQEFKLTLVK | failed
MIELIIGAVLLSLLIYGIFIEPHLMKVRHVKIAQKQNLKIAHFTDTHFAWHTTSRRFKKFARNIANEQPDLIIFSGDLFDKVAWAKNRDWTDLLTILSELKAPLGKFAILGNHDFDDEKSSRFVEEFLEKAGFVLLKNSSVVKDNLSISGVDDWREGRPDFELEPIDATFSLLALHEPDTILDMETIKEFDLILSGHSHGGQIRIGNWRLRNKGSSSADAGLYQLNDRTKLYVNRGIGLTFLPIRFGVPPEIVYYYI | failed
MIENSSPYTSEHFHYTVTDIKDLTKLGAIYDKTKKYWVYQGKPVMPDQFTFELLDFLHQLTHLSFSKMKALLERSHSPYYMLNRDRTLKNITETCKACAQVNASKSLEHHHHHH | not failed
MIEQELTYQDLRIPSSEIYEAMGYKDSIPDQMVIDETNTLLKRVIPLLRPRFAFFFMEGTLDIEKETLSVQSIHPPTVNPIQDTIPTRSPEQNTFSTQSKSTVFSVGKTIARQLRGSEAFVFFAATAGTEFEVFQHTLQQEEDMVKIYIADSLGSIIAEKTADCMEVALAEYIREKNWKHTNRYSPGYCGWHVSEQQKLFPLFPIAAPCGIRLTDSSLMVPIKSVSGVIGTGTNVRKLEYTCGLCTYENCYRKRKHRLEHHHHHH | failed
